Experimental findings from patent publication US10617652B2, “Polymers and polymeric nanogels with hydrophilics encapsulation and release capabilities and methods thereof” (University of Massachusetts, priority 2014, dated 2020) are described below.

The series has as its target T1, acid α-glucosidase (GAA) (Homo sapiens, UniProt P10253).
T1 construct: purchased Genzyme, Inc. (Myozyme)
The series is described as follows: GAA activity assay with para-nitrophenol-α-D-glucopyranoside substrate. It counts as biochemical. The protocol: The activity of the encapsulated GAA, relative to the free GAA, was evaluated. It was envisioned that the enzyme would be less available to the substrate, when encapsulated, and therefore would have a lower activity. It follows then that the activity will be recovered when exposing the nanogel to lower pH, as the enzyme will be released in response to the β-thioester cleavage based decrosslinking. The enzymatic activity was measured using para-nitrophenol-α-D-glucopyranoside as substrate, the GAA-assisted cleavage of the α-1,4-linkage of which releases the chromophore p-nitrophenolate (pNP). […] Note, however, that the enzymatic activity of GAA itself at pH 7.4 is undetectable (FIG. 4a).
To activate the GAA from the nanogel, the pH of the solution was reduced to 5.0 using acetate buffer. […] To calibrate the percentage of activity that was recovered after 48 hours of incubation at pH 5.0, the enzymatic activity of the GAA from the nanogel was compared with that of the free enzyme at the same concentration. […]
GAA activity was measured using para-nitrophenol-α-D-glucopyranoside as a substrate in 100 mM Citrate/100 mM Sodium Phosphate buffer at pH 5.0. […] Presence of the product formation (para-nitrophenolate) was then measured by absorbance of 400 nm light on a Molecular Devices Spectra Max M5 at 25° C. […]

For acid α-glucosidase [GAA], the “enzymatic activity at pH 7.4” value was “undetectable”.
